Measurements: the DeepSol protein solubility set

Assay: soluble on expression in E. coli; label from the status in PepcDB or PDB records

Sequence	soluble on expression in E. coli
PVPPLPEHGGKVRFGLIPEEFFQFLYPKTGVTGPYVLGTGLILYLLSKEIYVITPETFSAISTIGFLVYIVKKYGASVGEFADKLNEQKIAQLEEVKQASIKQIQDAIDMEKSQQALVQKRHYLFDVQRNNIAMALEVTYRERLHRVYREVKNRLDYHISVQNMMRQKEQEHMINWVEKRVVQSISAQQEKETIAKCIADLKLLSKKAQAQPVM	soluble
MEKVHAALTNPAYWDFIVKNLSPEPGEVHEFTEANGGAVATLFEVLPQELLPEAIRAMISQALKVKRVVTVGGLNGTSAPLSYTADVKGTPVDFKGEISMNGLGNTTTLSYANEITVNIPLMGAAIEPKVGQALADLFQNEGDLTSKWISKNL	not soluble
MGSDKIHHHHHHMQLNPSLIPHSSEQHVDWEKALHGGNDALLTQLAADDDPAAALLELESYINGIYRGSPSPLSKPLPDIRLEVRRALPYVDEIRDRLGWQVRDFDLGLLRLIRGSSTLSPVLGAGVSMDAGAPSWPELVRLMLEETLDKGLEFYESVPAADNPAQPPIEFLPDGTVRTGGTGTWRFEQRVSEVKRYTAEQEQTARNVLAEVKAKGSSTDVETLMHGAQVCYDLCGQHLFRLLTKIIYTRAKEPSEVHRVIAELAQAQEVPVRGPGLFPGWDSIITYNIDALMSEALAEQKIPHAAWAMKGDKLRGNPDELAQKSSWHEPIFHLHGFSPRRLFMITNVRFVFSTSQYLTTYKGPRSRILEAVYDEFLANPVRIALYIGCSFADEAMNGLLREAFAEYPGRYHYALLKWPRDRKGKEPDRSEIAAESAKYLEFGVRPIWFDDFAELPGLIRQLQ	not soluble
MGSDKIHHHHHHACTGSSQKEKPACVNTPVEPFTGLPVFDLQEQYPEKEIILQDIADVRYVVLETGDSSLVGIRPILMTDSFLVTVNKKSDVIFFDKSGKYLHSFNHTSMSGEEYGDIVSGYCIDEKAREIFIYDGLQSRIQVYGYGGAYRRTLKLPQNRMFASSIFEYDENFLFGEDYRLVDSQIGKYPVNKTPYYKISKKDGKLTSIPITVKERIRDGLSYTVGDGAFGYVSLLMSPVARFGSDILIADYSLDTAYVYRDDHLIPLTVRRNHTSENNIPILATVDVMTGRYLLWYTIVKDIDVKNNRVSDPVSYLYDRFTNEYCRVDLVNRDVVSATNIPAFQMRLSANYHVVPENYAIQYYPAEELIELNGQGKLKGELKEIASKLNDEDNPVLLIAKFKE	not soluble
MGSDKIHHHHHHMRRIKIFDTTLRDGEQSPGASMSIEEKVEMALMLEDLGVDLIEAGFPVSSPVQFEAVKRVASAVQKPIVVGLARCVEKDIDAAYEALKDRPKDKRMIHVFIATSPIHRKYKLRMEKEEILERIRRYVGYAKQFFDLVEFSAEDASRTEVPFLIEAYKTAIEAGATTINVPDTVGYALPDEFGELIKTLREGVPGIENVDLSVHCHNDLGLAVANSLAAVQNGATQVEVTLNGIGERAGNCALEEFVMILKVRKDKLPYETGIKTELIYPASRLLTHITGLIPSRNKPIVGENVFLHESGIHQDGVLKHRETYEIMKPSDIGRSSETLVLGRHSGKHALRKKLETYGIKLDEETFQKVFEKFTELADRKKEVYDDDLFSIVSEVLREPINGYKLVHFHVHTGNTLLPTAAVVLQVGNEKREAAEAGNGPVDAIFKAIDKALGIQPKLEEYIIQAVGTGKNAQGEVKLTLRIDNELYSGRGVSTDIVEASAIAYINAINKYLIAKGLLRKNGGAE	not soluble
PKHGKRYRALLEKVDPNKIYTIDEAAHLVKELATAKFDETVEVHAKLGIDPRRSDQNVRGTVSLPHGGRIEFRNDKTGAIHAPVGKASFPPEKLADNIRAFIRALEAHKPEGAKGTFLRSVYVTTTMGPSVRINPHS	soluble
MGSDKIHHHHHHMSNTAQLITPSPIGLIADITELFEKTFAHFSRTLKVNADDIPEETMSFHTWSSIDNFPTLIQKYRDEYYGDNDLKPNDKALYSLWSQWYFGLIIPPMMLLLIEYPQTIDTHHKNFKVLFHHSGRPEVVYYQLKWQSQDPGTLLERYYLLLNHHVIPIAEKIESYQGINGRLLWNNIGYLMFWYLGEFKGRLGDDLYQSIINGLFMELSLPNGQDNPLYRTVMLRNGTLQRRSCCQRNKLPGVRSCHDCPLEKPPLNLIS	not soluble
MSTPYVSVIGKITGIHKKEYESDGTTKSVYQGYIEDDTARIRISSFGKQLQDSDVVRIDNARVAQFNGYLSLSVGDSSRIESVNVNIPLEHHHHHH	not soluble
MEKSKPNVVFVLGGPGSGKGTQCANIVRDFGWVHLSAGDLLRQEQQSGSKDGEMIATMIKNGEIVPSIVTVKLLKNAIDANQGKNFLVDGFPRNEENNNSWEENMKDFVDTKFVLFFDCPEEVMTQRLLKRGESSGRSDDNIESIKKRFNTFNVQTKLVIDHYNKFDKVKIIPANRDVNEVYNDVENLFKSMGF	soluble
GSHMNGGRPPHHPYDAKDVSEYSCRELHYTRFLTDGPCRSAKPVTELVCSGQCGPARLLPNAIGRVKWWRPNGPDFRCIPDRYRAQRVQLLCPGGAAPRSRKVRLVASCKCKR	soluble
MVSEREQLACLVQQWNENRLDLFHLSYPTEDLEVEGVMRFYFQDGGEKVLTKCVRVSSTATTRAVVDALSEKFLPDLKMLSNDTYSLWEVHENGEERKLLDEEKPLVVQLQWHKDDREGRFLLKKDAAPPVSLLNLQEADQKNTRFAKKKDKEPKKKNQKNFVQVNGGREEAQSQDDIYKQVPFNTFTRTISNPEAVMRKRREKKLETKLKEMMFGGSLKVYGGEIVPTRPYVSILAEINENADRILGAALEKYGLEHSKDDFILVEVSNDDDRKSMSDLREIDGRPIPPTECPLFEMTARSGNGENGFDSFLAIKRKPHDYQVPSTSVVAPSSVTLPMSPLTSLPPQIHNLPVLIVMNNDGHLSTHRITLHEGVTEVGSDSQMSNFSQHNIYLDGPDIRGRHAAIAFMEGVVTLTPSTRDAYLEVNGHQLMQTEILRDGDHIRIGADHSFKFSTSSSQANQINSTNISNSNQRHFQQQTFYPEMADSRASTARCAPSDYCSLPQQNDYYPPSMSGSSVSSSRQEDLMMHSNNNILPPYSTKSAQEPLQLPLSIQIGDYNVWDFLAEVMSNRAATSSEMSTFRLSPAYSLYLALRSFHTHNKPYSVQFFSRIESNFKQIAQECSSKDDLIFWLANASEFNHLVERDTELKASRYGKISVEIERIFRRLVAVLQSVIRPAARALLDIHLNDHDATGDVIHLLDTTMRQARICGLNAALTIQLCGHLLHMVNAFVFNSLVSVNLPAAQLNTRLGKCLQYRIESIHRFCERMGVEMAAECHLDRSRQAANLLATQKNDVAALGSTCYKLNSLQVVHILSGFEPDDGEIPCDDDVVDRICRLAEKQADKLTLEDGQRVTLEESDELNLPFLIPQDGYFVEQFRTVPDGLWQYLQQLQHRRLCHTVSLTPAPPAAMTHSMHAMHIGASDAHYHQHQHQQQQNPIVRSVSQTTLTSIPTTQFGDSFGSAVSDTISKVTLRKNGGGIGLSIVAAQGVGDRQMGIYVKKVVEGTPAAHDGRLETGDQLLSVNGHSLIGISQEEFVFQ	not soluble
MGSDKIHHHHHHMFEGPIIDARIKSIASGFRAVSVYVDATSAEEGRFDPRLLGEACDCALADGPAWAEAHLASWSDAYAVFGAKPNRTPCSAQALRKRVLKDGTLSTINPIVDLYNAISLKYAVPVGGENFDAYVGRPHLTVADGSETFDTMVNGEAVNDPPLPGEVIWRDDIGVTCRRWNWRQGTRTRLKTLTGRMWFVLEALETMPDDALAEATDAMVGGLNALMPGCKIASQEIAIAG	not soluble
MAHHHHHHMWRRAACQAVTSRFFRPAVAASTASSSSALRESCRTGIIIGNPKQGMIDPIHVSWTDIAGSDTTPGARLAAGRVLAMLDMCAARTSQKAIDHQDCLTHERYLTCTVGVTNTMFSSPILHGDAVRLDGRLVCCGSSSMGIYIRFYRQSPSTRTETPAGHSFFTMVAITPDLKAAKVVPAIELTDPLDIELHNHYVKVRKLQEENKKNTAERLKRTLTTEEVQCSINQQKPIHARINSTRVEANRIFFTSCMNNNNTVFGGELMAWMEQHAVHCGRMFTGNRYVFTIGMHSVAFPEPVFATDWVTLEATVIYVRNTTMEVDVVLKAERKDAGTVITNRASFVLINNDDIGRKCAIPIGLELNGATQEELQQFMEARVRYHCSVARRDDFHASNLCTGTTKL	not soluble
MSTSWRIRIMLTIHAKLVEAMLAQAHKDHPFEICGVIAGPEKSNLPLRLIPMRNAAQSETFFKFDPQEQLQVWREMEARGEEPIVIYHSHTHTPAYPSRTDVQYASQPQSHYVIVPTDPAYGEEIRSFRILDGMVTEERIRMINSYKAEWELSMEAMVALEHHHHHH	soluble
MRGSHHHHHHGSACMKRQGASSERKRARIPSGKAGAANGFLMEVCVDSVESAVNAERGGADRIELCSGLSEGGTTPSMGVLQVVKQSVQIPVFVMIRPRGGDFLYSDREIEVMKADIRLAKLYGADGLVFGALTEDGHIDKELCMSLMAICRPLPVTFHRAFDMVHDPMAALETLLTLGFERVLTSGCDSSALEGLPLIKRLIEQAKGRIVVMPGGGITDRNLQRILEGSGATEFHCSARSTRDSGMKFRNSSVAMGASLSCSEYSLKVTDVTKVRTLNAIAKNILV	soluble
MSLKEYKSKIEFSVYSTSGMKTRMEDYYLCIKNMNKMIQKEKKELTYFGVFDGHVGTSAADYCNFKLYNEIVRSKSFPKNIENAIQDGIINVENGFKEIAMKTKVNAGTTLAIVMIYDNTIYTANVGDSEIVVCYNDGSYVVTSEKHNPSVDKEKARIESAGGKVFYNHGWRVDGLLGVSRSIGDESMKKYVICQPKIWSKAIDSSFQFIIVACDGFWNVFKYEDAINLARNYLFNYSFSNEEDKDSNGIILPRNKGDVSRYLIDIALKRQSFDNITVTICYFNEGHHHHHH	soluble
MSLKISDGNWLIQPGLNLIHPLQVFEVEQQDNEMVVYAAPRDVRERTWQLDTPLFTLRFFSPQEGIVGVRIEHFQGALNNGPHYPLNILQDVKVTIENTERYAEFKSGNLSARVSKGEFWSLDFLRNGERITGSQVKNNGYVQDTNNQRNYMFERLDLGVGETVYGLGERFTALVRNGQTVETWNRDGGTSTEQAYKNIPFYMTNRGYGVLVNHPQCVSFEVGSEKVSKVQFSVESEYLEYFVIDGPTPKAVLDRYTRFTGRPALPPAWSFGLWLTTSFTTNYDEATVNSFIDGMAERNLPLHVFHFDCFWMKAFQWCDFEWDPLTFPDPEGMIRRLKAKGLKICVWINPYIGQKSPVFKELQEKGYLLKRPDGSLWQWDKWQPGLAIYDFTNPDACKWYADKLKGLVAMGVDCFKTDFGERIPTDVQWFDGSDPQKMHNHYAYIYNELVWNVLKDTVGEEEAVLFARSASVGAQKFPVHWGGDCYANYESMAESLRGGLSIGLSGFGFWSHDIGGFENTAPAHVYKRWCAFGLLSSHSRLHGSKSYRVPWAYDDESCDVVRFFTQLKCRMMPYLYREAARANARGTPMMRAMMMEFPDDPACDYLDRQYMLGDNVMVAPVFTEAGDVQFYLPEGRWTHLWHNDELDGSRWHKQQHGFLSLPVYVRDNTLLALGNNDQRPNYVWHEGTAFHLFNLQDGHEAVCEVPAADGSVIFTLKAARTGNTITVTGAGEAKNWTLCLRNVVKVNGLQDGSQAESEQGLVVKPQGNALTITLEGGSHHHHHH	soluble
LQMLTLEEWAAEKYRSNPPSVSTLRRYAKQNLFCPPAMKQGRLWRVREDAELVGELVTPVIKKNDSLLLQRILSNGSQTA	not soluble
MAVSEIKATMKLKPLKAPVFHKRDKDLRGSFSDHLKHKESKLSPAQLEAFRNAYNFFTKDRTGCIDSHGLISTIAKLGMNLNTYDIYNELKCADLDRDGKINFSDFINVLTDKKLFLKAVVPEKKICLDLANNPGILLFEILSKFVETSSLHRKDIIELVSYFRKRFQESHSEIMWSSYGRRGLKSEICSPPRSSTAAFANSARISIMKERDLYKFLEALKRCNLRTDSPYSKIPVFPLFPDVDGTVMGKPFKDTQKIEMLRRKEPLTFFEDYFFNKRDWKTQAMNVKPLKSASGYSDDILAIDHLFKKKQHWTVTDAAAIKQHVKKATESYNLGIALDHRKEMLNLWKKIRGDLVGIESNNESFYNTFSTYTWSWNVCQELLSAKDLRLHDASMNKSSPSNSGLSSPSDFSESDPETGRKRKRKSSRGFRQ	not soluble
